For 16 molecules, Kd results are on record in PMC11344278, “Structural and biochemical characterization of the C‐terminal region of the human RTEL1 helicase” (Protein Science : A Publication of the Protein Society, 2024).

The target in data set [1] is T1, RTEL1 CT-L (entire C-terminal region) (Homo sapiens) (UniProt Q9NZ71).
T1 sequence (Q9NZ71 whole entry, looked up): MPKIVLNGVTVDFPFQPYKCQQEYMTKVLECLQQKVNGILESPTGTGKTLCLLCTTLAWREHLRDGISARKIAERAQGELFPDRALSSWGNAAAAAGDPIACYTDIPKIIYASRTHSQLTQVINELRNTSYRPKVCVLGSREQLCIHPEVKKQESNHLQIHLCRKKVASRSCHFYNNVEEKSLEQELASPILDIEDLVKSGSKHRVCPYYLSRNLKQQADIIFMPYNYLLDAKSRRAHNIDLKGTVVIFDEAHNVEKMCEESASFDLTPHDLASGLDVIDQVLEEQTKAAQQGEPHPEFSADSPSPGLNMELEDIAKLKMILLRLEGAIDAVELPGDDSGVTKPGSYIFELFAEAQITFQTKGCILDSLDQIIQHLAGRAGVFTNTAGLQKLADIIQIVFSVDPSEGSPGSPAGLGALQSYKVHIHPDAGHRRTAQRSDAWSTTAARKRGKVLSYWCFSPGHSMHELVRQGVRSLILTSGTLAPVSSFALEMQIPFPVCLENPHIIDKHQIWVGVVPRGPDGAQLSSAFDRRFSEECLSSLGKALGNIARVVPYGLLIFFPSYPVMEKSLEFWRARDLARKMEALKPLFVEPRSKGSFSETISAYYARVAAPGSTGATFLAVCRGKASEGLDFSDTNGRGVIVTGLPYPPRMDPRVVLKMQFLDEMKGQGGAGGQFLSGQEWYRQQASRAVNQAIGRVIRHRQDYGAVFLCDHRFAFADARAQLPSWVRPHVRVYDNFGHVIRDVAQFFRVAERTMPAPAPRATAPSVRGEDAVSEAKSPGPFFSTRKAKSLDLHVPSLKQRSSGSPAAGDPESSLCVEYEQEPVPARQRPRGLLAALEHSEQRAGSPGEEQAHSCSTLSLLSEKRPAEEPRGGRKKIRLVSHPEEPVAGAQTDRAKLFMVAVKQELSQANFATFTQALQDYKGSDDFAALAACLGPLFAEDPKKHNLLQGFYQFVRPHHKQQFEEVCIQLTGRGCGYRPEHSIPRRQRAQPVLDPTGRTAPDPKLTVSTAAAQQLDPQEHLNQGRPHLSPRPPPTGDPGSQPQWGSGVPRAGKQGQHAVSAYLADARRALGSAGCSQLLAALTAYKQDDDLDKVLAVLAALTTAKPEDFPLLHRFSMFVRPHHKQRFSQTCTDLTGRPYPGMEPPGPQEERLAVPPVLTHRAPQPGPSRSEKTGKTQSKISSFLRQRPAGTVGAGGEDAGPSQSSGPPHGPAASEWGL
Put plainly: EMSA. The conditions noted are these: 0.5 mM Mg2+, 20 mM Tris pH 7.5, 50 mM KCl, 0.5 mM MgCl2, 10% glycerol, 0.1% Igepal, 10 nM substrate, EMSA at room temperature 15 min (0-160 nM protein), FA at 25 C ….

The target in data set [2] is T2, RTEL1 HHD1-2 (Homo sapiens) (UniProt Q9NZ71).
T2 sequence: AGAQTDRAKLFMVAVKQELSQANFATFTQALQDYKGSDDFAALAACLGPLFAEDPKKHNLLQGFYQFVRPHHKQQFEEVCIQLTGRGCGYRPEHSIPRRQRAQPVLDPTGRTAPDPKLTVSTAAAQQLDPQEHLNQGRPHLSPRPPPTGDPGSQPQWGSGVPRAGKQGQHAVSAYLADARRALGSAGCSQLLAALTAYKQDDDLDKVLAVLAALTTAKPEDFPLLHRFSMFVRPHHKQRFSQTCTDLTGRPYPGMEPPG
Put plainly: fluorescence anisotropy. The note with it: 0.5 mM Mg2+; 20 mM Tris pH 7.5, 50 mM KCl, 0.5 mM MgCl2, 10% glycerol, 0.1% Igepal, 10 nM substrate; EMSA at room temperature 15 min (0-160 nM protein), FA at 25 C ….

For data set [3], the target named is T3, human PCNA (Proliferating Cell Nuclear Antigen) (human, UniProt P12004 1-261, uniformly 2H,13C,15N labelled (for NMR experiments)).
T3 construct: 3-residue N-terminal extension left after HRV 3C cleavage, preceding the native initial methionine; human PCNA, UniProt P12004, from the native initial methionine; The methods describe only the isotopically labelled PCNA made for NMR; not shown: His6, N-terminal, cleaved
T3 sequence (P12004 other isoform, or with tags, fused parts or gaps): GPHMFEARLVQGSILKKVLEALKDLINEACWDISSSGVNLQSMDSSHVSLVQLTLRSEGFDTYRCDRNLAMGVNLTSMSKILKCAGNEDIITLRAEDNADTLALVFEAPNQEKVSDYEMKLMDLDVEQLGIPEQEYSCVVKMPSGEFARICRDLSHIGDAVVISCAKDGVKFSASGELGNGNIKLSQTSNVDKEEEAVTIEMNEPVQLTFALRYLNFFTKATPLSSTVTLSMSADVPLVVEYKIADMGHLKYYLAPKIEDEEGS
Put plainly: ITC; 16.8 uM PCNA in the cell, 282 uM PIP1 peptide in the syringe; 35 °C; PBS pH 7.0, 1 mM TCEP; fitted to a 1:1 binding model (one set of identical sites). The note with it: both partners purified.

A further data set concerns the target T4, RTEL1 HHD2 (Homo sapiens, UniProt Q9NZ71 1053-1147).
T4 sequence: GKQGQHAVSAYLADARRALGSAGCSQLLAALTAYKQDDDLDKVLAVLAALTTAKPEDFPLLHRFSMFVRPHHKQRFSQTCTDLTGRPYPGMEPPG
Put plainly: fluorescence anisotropy; 0.5 mM Mg2+; 20 mM Tris pH 7.5, 50 mM KCl, 0.5 mM MgCl2, 10% glycerol, 0.1% Igepal, 10 nM substrate; EMSA at room temperature 15 min (0-160 nM protein), FA at 25 C (0-2500 nM protein); Hill-slope fit. The note with it: protein: recombinant, tags: N-terminal 6His-Trx removed by TEV.

“TGAGGGTGGGTAGGGTGGGTAA [1XAV c-Myc promoter G4]” gave a Kd in data set [1] (K+) of 57 nM.
Regarding “GTACCCGGGGATCCTCTAGAGTCGACCTGCAGGCATGCAAGCTTGGCACTGGCCGTCGTTTTACAAC / GTTGTAAAACGACGGCCAGTGCCTTTTCCCAGCCTCAATCTCATCACTCTAGAGGATCCCCGGGTAC / GCUUGCAUGCCUGCAGGCCAGCCUCAAUCUCAUCUUUUU [R-loop (R4:D9:D11)]”, the Kd in data set [2] worked out at 160 nM; in data set [1], 10 nM.
Taken in the same sequence, the figures for “CTACTACCCCCACCCTCACAACCTTTTTTTTTTTTTTT / TTTTTTTTTTTTTTTGGTTGTGAGGGTGGGGGTAGTAG [DNA fork (D1L:D3L)]” were 155 nM and 43 nM.
Turning to “CUACCCCCACCCUCACAACCUUUUUUUUUUUUUUU / UUUUUUUUUUUUUUUGGUUGUGAGGGUGGGGGUA [RNA fork (R1L:R3L)]”, the results for the Kd in data set [2] and in data set [1] were 273 nM and 51 nM, respectively.
Taken in the same sequence, the figures for “GTACCCGGGGATCCTCTAGAGTCGACCTGCAGGCATGCAAGCTTGGCACTGGCCGTCGTTTTACAAC / GTTGTAAAACGACGGCCAGTGCCTTTTCCCAGCCTCAATCTCATCACTCTAGAGGATCCCCGGGTAC / GCTTGCATGCCTGCAGGCCAGCCTCAATCTCATC [D-loop (D4:D9:D11)]” were 327 nM and 11 nM.
On to UUAGGGUUAGGGUUAGGGUUAGGG [TERRA G4], for which the dissociation constant (Kd) in data set [2] is 38 nM; in data set [1] (K+), 10 nM.
With “CTACTACCCCCACCCTCACAACC (double strand) [dsDNA (D1B:D3B)]”, in data set [1], the Kd worked out at 63 nM.
The same measure, in the same setting: under “CTACTACCCCCACCCTCACAACCTTTTTTTTTTTTTTT / UUUUUUUUUUUUUUUGGUUGUGAGGGUGGGGGUA [DNA/RNA fork (D1L:R3L)]” stands 52 nM.
Take “CUACCCCCACCCUCACAACCUUUUUUUUUUUUUUU [ssRNA]”: the Kd in data set [2] worked out at 192 nM; in data set [1], 46 nM.
Taken in the same sequence, the figures for “CTACTACCCCCACCCTCACAACCTTTTTTTTTTTTTTT [ssDNA]” were 247 nM and 40 nM.
In turn, “GTACCCGGGGATCCTCTAGAGTCGACCTGCAGGCATGCAAGCTTGGCACTGGCCGTCGTTTTACAAC / GTTGTAAAACGACGGCCAGTGCCTTTTCCCAGCCTCAATCTCATCACTCTAGAGGATCCCCGGGTAC [Bubble (D9:D11)]” yielded a Kd in data set [1] of 27 nM.
For the molecule “TTAGGGTTAGGGTTAGGGTTAGGGTT [2JPZ telomeric G4]”, in data set [1] (K+), the Kd worked out at 26 nM.

B1: RTEL1 PIP1 peptide (canonical PIP-box of human RTEL1) (peptide)
chain: QSKISSFL
In data set [3], B1 gave a Kd of 53300 ± 7200 nM.

B2: TERRA G4 (structured_RNA)
RNA: UUAGGGUUAGGGUUAGGGUUAGGG
For B2, the Kd with RTEL1 HHD2 (label: 5' 6-FAM, G4) turned out to be 489 ± 124 nM.

B3: RNA fork (R1L:R3L) (dsRNA)
RNA 1: CUACCCCCACCCUCACAACCUUUUUUUUUUUUUUU
RNA 2: UUUUUUUUUUUUUUUGGUUGUGAGGGUGGGGGUA
B3: the Kd in the data set with RTEL1 HHD2 (label: 5' 6-FAM on strand 1, fork with U15 arms (3' on strand 1, 5' on strand 2), end as printed not fully blunt) was 512 ± 104 nM.

B4: DNA fork (D1L:D3L) (dsDNA)
DNA 1: CTACTACCCCCACCCTCACAACCTTTTTTTTTTTTTTT
DNA 2: TTTTTTTTTTTTTTTGGTTGTGAGGGTGGGGGTAGTAG
For the molecule B4, the Kd with RTEL1 HHD2 (label: 5' 6-FAM on strand 1, fork: 23 bp duplex, T15 arms (3' on strand 1, 5' on strand 2)) is 254 ± 52 nM.
